Assay in all cases: peptide SPOT array, c-Myc-tagged receptor at 1 uM or 100 nM, anti-c-Myc-Cy3
Assay [1] concerns the target T1, Mcl-1, Q07820.
T1 chain: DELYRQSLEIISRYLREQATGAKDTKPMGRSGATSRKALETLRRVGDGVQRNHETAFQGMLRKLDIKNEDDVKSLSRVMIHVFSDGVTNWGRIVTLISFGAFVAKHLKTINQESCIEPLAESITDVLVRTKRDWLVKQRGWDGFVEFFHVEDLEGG

Assay [2] has as its target T2, Bfl-1, Q16548.
T2 chain: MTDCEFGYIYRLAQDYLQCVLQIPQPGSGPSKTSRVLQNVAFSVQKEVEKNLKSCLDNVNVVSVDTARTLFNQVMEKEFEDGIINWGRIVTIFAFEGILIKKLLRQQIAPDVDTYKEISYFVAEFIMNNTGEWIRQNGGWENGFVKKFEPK

Assay [3] deals with Bcl-xL, Q07817.
Sequence of Bcl-xL, Q07817 (Q07817 1-209): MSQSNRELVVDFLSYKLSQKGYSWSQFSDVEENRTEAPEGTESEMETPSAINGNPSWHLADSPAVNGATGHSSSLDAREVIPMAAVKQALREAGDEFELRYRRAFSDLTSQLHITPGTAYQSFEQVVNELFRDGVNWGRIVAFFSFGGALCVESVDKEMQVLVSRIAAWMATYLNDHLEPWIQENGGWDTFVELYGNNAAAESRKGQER

TAGLRPGARLLRVCGQTLPSLRPEAA [SIPA1]: the SPOT signal as a fraction of Bim BH3's signal on the same receptor and array was determined as 0.91 in assay [1], 0.8 in assay [2] and 1.22 in assay [3].
Taken in the same sequence, the figures for YFKLFRASGDMRTNGDNYLYEIQLSS [IGF2R] were 0.43, 0.47 and 0.41.
Taken in the same sequence, the figures for EAVTDGLKRALRSFLNALGNCILDKD [RAD52] were 0.08, 0.04 and 0.08.
For the molecule QASREAGAAALRNVAQRLFENYQTQS [CCDC68], the SPOT signal as a fraction of Bim BH3's signal on the same receptor and array in assay [1] was 0.21; in assay [2], 0.18; in assay [3], 0.36.
Taken in the same sequence, the figures for PYLSKHRADRMRRLGDFLNQESFDLA [SMPD2] were 0.71, 0.69 and 1.3.
Taken in the same sequence, the figures for RLRQLGVAKKFGVLSDNFKGKRIVLV [PPAT] were 1.04, 0.64 and 1.65.
Taken in the same sequence, the figures for WVKSIRICTPDGKLGDSCHPLTRKVP were 0.75, 0.47 and 1.01.
For KKLKNLEGNELQRHLDEFLLDLGHHE [FUT8], the SPOT signal as a fraction of Bim BH3's signal on the same receptor and array is 0.05 in assay [1], 0.04 in assay [2] and 0.08 in assay [3].
Taken in the same sequence, the figures for MRSQLGKATALAIMGDKLWWADQVSE were 0.28, 0.14 and 0.22.
Taken in the same sequence, the figures for WTLFVYTKGNDRMIGDDLVNSYHLLL [RBL1] were 0.07, 0.05 and 0.08.
Taken in the same sequence, the figures for WVKSIRICTPMGKLGDSCHPLTRKVP were 0.81, 0.56 and 1.07.
For the molecule ELDEDDLEAELDALLDELLADEDSSY [CHMP5], the SPOT signal as a fraction of Bim BH3's signal on the same receptor and array was found to be 0.03 in assay [1], 0.03 in assay [2] and 0.06 in assay [3].
FGEYSGISENDILVGDDFWIPETSFI [ROS1]: the results for the SPOT signal as a fraction of Bim BH3's signal on the same receptor and array in assay [1], in assay [2] and in assay [3] were 0.04, 0.04 and 0.07, respectively.
For the molecule PKKKMTLSEIYQWILDNFPYYREAGS [FOXJ3], the SPOT signal as a fraction of Bim BH3's signal on the same receptor and array amounted to 0.16 in assay [1], 0.1 in assay [2] and 0.15 in assay [3].
Taken in the same sequence, the figures for TSRINEVQVNLSLLLDDLLLPAQSTL [SPHKAP] were 0.04, 0.03 and 0.05.
Taken in the same sequence, the figures for PSECETLGSNLGHNLDLLNENNILAK [ZFP90] were 0.04, 0.04 and 0.1.
Taken in the same sequence, the figures for MRSQLGKATADAIMGDKLWWADQVSE were 0.16, 0.12 and 0.17.
As for LLDFFMVSILFSKLLDLLHKLQFVLT [PCNXL2], the SPOT signal as a fraction of Bim BH3's signal on the same receptor and array in assay [1] was 0.08; in assay [2] it was 0.07; in assay [3], 0.1.
ELLYGIWSNCLGLISDSFHMFFDSTA [SLC30A7]: the SPOT signal as a fraction of Bim BH3's signal on the same receptor and array worked out at 0.06 in assay [1], 0.06 in assay [2] and 0.07 in assay [3].
In the case of GVMTQEVGQLDQDMGDDVYQQYRSLT [HUWE1], the SPOT signal as a fraction of Bim BH3's signal on the same receptor and array in assay [1] was determined as 0.01; in assay [2], 0.01; in assay [3] it was 0.02.
On to RMIVDCVSSHDKKTGDGAKTFIIFLC [BBS10], for which the SPOT signal as a fraction of Bim BH3's signal on the same receptor and array in assay [1] is 0.08; in assay [2], 0.09; in assay [3], 0.17.
Taken in the same sequence, the figures for NNNMDVESRTMATMLDTLASRGLLDA [SEC16A] were 0.03, 0.05 and 0.04.

For the origin of these results see article PMC4072508, “Genome-Wide Prediction and Validation of Peptides That Bind Human Prosurvival Bcl-2 Proteins” (PLoS Computational Biology, 2014).
